How the values were obtained:
HLA-B*39:01 = experiment: IEDB peptide-MHC binding, purified MHC/competitive/fluorescence; filed as Kd, often an IC50 or EC50 that approximates it; ≥ and ≤ were set here for values at or beyond the usual limits of such assays
HLA-A*29:02 = experiment: as above
HLA-B*18:01 [1] = experiment: as above; conditions: source organism: Homo sapiens
HLA-A*03:01 [2] = experiment: as above
HLA-A*02:01 [3] = experiment: as above
HLA-B*15:01 [4] = experiment: as above
HLA-B*57:01 = experiment: as above
HLA-B*27:03 = experiment: as above
HLA-B*46:01 [5] = experiment: as above
HLA-A*11:01 = experiment: IEDB peptide-MHC binding, purified MHC/direct/fluorescence; filed as Kd, often an IC50 or EC50 that approximates it; ≥ and ≤ were set here for values at or beyond the usual limits of such assays; conditions: source organism: Influenza A virus (A/swine/Cotes d'Armor/800/00(H1N2))
HLA-A*31:01 = experiment: as above; conditions: source organism: Influenza A virus (A/swine/Cotes d'Armor/800/00(H1N2))
HLA-B*27:05 = experiment: as above; conditions: source organism: Influenza A virus (A/swine/Cotes d'Armor/800/00(H1N2))
HLA-A*02:11 = experiment: as above; conditions: source organism: Influenza A virus H3N2
HLA-B*58:01 = experiment: as above; conditions: source organism: Influenza A virus (A/swine/Cotes d'Armor/800/00(H1N2))
HLA-B*18:01 [6] = experiment: as above; conditions: source organism: Influenza A virus (A/swine/Cotes d'Armor/800/00(H1N2))
HLA-A*03:01 [7] = experiment: as above; conditions: source organism: Influenza A virus (A/swine/Cotes d'Armor/800/00(H1N2))
HLA-B*08:01 = experiment: as above; conditions: source organism: Influenza A virus (A/Puerto Rico/8/34/Mount Sinai(H1N1))
HLA-B*44:02 = experiment: as above; conditions: source organism: Influenza A virus (A/swine/Cotes d'Armor/800/00(H1N2))
HLA-A*02:01 [8] = experiment: as above; conditions: source organism: Influenza A virus (A/Puerto Rico/8/34/Mount Sinai(H1N1))
HLA-B*15:01 [9] = experiment: as above; conditions: source organism: Influenza A virus (A/swine/Cotes d'Armor/800/00(H1N2))
HLA-A*02:16 = experiment: as above; conditions: source organism: Influenza A virus H3N2
HLA-A*69:01 = experiment: as above; conditions: source organism: Influenza A virus (A/swine/Cotes d'Armor/800/00(H1N2))
HLA-B*40:01 = experiment: as above; conditions: source organism: Influenza A virus (A/swine/Cotes d'Armor/800/00(H1N2))
HLA-A*24:02 = experiment: as above
HLA-B*07:02 [10] = experiment: as above; conditions: source organism: Influenza A virus (A/Puerto Rico/8/34/Mount Sinai(H1N1))
HLA-B*46:01 [11] = experiment: as above; conditions: source organism: Influenza A virus (A/swine/Cotes d'Armor/800/00(H1N2))
HLA-A*01:01 = experiment: as above; conditions: source organism: Influenza A virus (A/swine/Cotes d'Armor/800/00(H1N2))
HLA-B*51:01 = experiment: IEDB peptide-MHC binding, purified MHC/competitive/fluorescence; filed as Kd, often an IC50 or EC50 that approximates it; ≥ and ≤ were set here for values at or beyond the usual limits of such assays
HLA-A*26:01 = experiment: as above; conditions: source organism: Rickettsia felis URRWXCal2
HLA-A*02:19 = experiment: as above; conditions: source organism: Rickettsia felis URRWXCal2
HLA-B*15:17 = experiment: as above; conditions: source organism: Rickettsia felis URRWXCal2
HLA-A*24:03 = experiment: IEDB peptide-MHC binding, purified MHC/direct/fluorescence; filed as Kd, often an IC50 or EC50 that approximates it; ≥ and ≤ were set here for values at or beyond the usual limits of such assays; conditions: source organism: Orthohantavirus hantanense
HLA-A*23:01 = experiment: as above; conditions: source organism: Orthohantavirus hantanense
HLA-B*35:01 = experiment: IEDB peptide-MHC binding, purified MHC/competitive/fluorescence; filed as Kd, often an IC50 or EC50 that approximates it; ≥ and ≤ were set here for values at or beyond the usual limits of such assays
HLA-C*05:01 = experiment: IEDB peptide-MHC binding, purified MHC/direct/fluorescence; filed as Kd, often an IC50 or EC50 that approximates it; ≥ and ≤ were set here for values at or beyond the usual limits of such assays; conditions: source organism: Influenza A virus (A/Harbin/1/1988(H1N2))
HLA-B*07:02 [12] = experiment: IEDB peptide-MHC binding, purified MHC/competitive/fluorescence; filed as Kd, often an IC50 or EC50 that approximates it; ≥ and ≤ were set here for values at or beyond the usual limits of such assays; conditions: source organism: Influenza A virus (A/Harbin/1/1988(H1N2))
[13] = source organism: Rickettsia felis URRWXCal2
[14] = source organism: Influenza A virus (A/Aichi/2/1994(H3N2))
[15] = source organism: Influenza A virus (A/Harbin/1/1988(H1N2))

VVPSYIPLV was tested, and the Kd (HLA-B*39:01; source organism: Homo sapiens) was at least 20 µM, the Kd (HLA-A*29:02; source organism: Homo sapiens) was at least 20 µM and the Kd (HLA-B*18:01 [1]) was at least 20 µM. It also gave a Kd (HLA-A*03:01 [2]; source organism: Homo sapiens) of at least 20 µM, a Kd (HLA-A*02:01 [3]; source organism: Homo sapiens) of 0.0007 µM and a Kd (HLA-B*15:01 [4]; source organism: Homo sapiens) of at least 20 µM. The Kd (HLA-B*57:01; source organism: Homo sapiens) was at least 20 µM, the Kd (HLA-B*27:03; source organism: Homo sapiens) was at least 20 µM and the Kd (HLA-B*46:01 [5]; source organism: Homo sapiens) was at least 20 µM.

In the case of GMDPRMCSL, the Kd (HLA-A*11:01) is reported as at least 20 µM, the Kd (HLA-A*31:01) is reported as at least 20 µM and the Kd (HLA-B*27:05) is reported as at least 20 µM. It also gave a Kd (HLA-A*02:11) of 0.011 µM, a Kd (HLA-B*58:01) of at least 20 µM and a Kd (HLA-B*18:01 [6]) of at least 20 µM. It also gave a Kd (HLA-A*03:01 [7]) of at least 20 µM, a Kd (HLA-B*08:01) of 6.22 µM and a Kd (HLA-B*44:02) of at least 20 µM. The Kd (HLA-A*02:01 [8]) was 0.392 µM, the Kd (HLA-B*15:01 [9]) was at least 20 µM and the Kd (HLA-A*02:16) was 0.019 µM. It also gave a Kd (HLA-A*69:01) of at least 20 µM, a Kd (HLA-B*40:01) of at least 20 µM and a Kd (HLA-A*24:02; source organism: Influenza A virus (A/swine/Cotes d'Armor/800/00(H1N2))) of at least 20 µM. It also gave a Kd (HLA-B*07:02 [10]) of 1.66 µM, a Kd (HLA-B*46:01 [11]) of at least 20 µM and a Kd (HLA-A*01:01) of at least 20 µM.

QYLFSLTYV showed a Kd (HLA-B*39:01; [13]) of at least 20 µM, a Kd (HLA-A*29:02; [13]) of 8 µM and a Kd (HLA-B*51:01; [13]) of at least 20 µM. The Kd (HLA-A*26:01) was at least 20 µM, the Kd (HLA-A*03:01 [2]; [13]) was at least 20 µM and the Kd (HLA-A*02:01 [3]; [13]) was 1.19 µM. The Kd (HLA-B*15:01 [4]; [13]) was at least 20 µM, the Kd (HLA-A*02:19) was at least 20 µM and the Kd (HLA-B*57:01; [13]) was at least 20 µM. It also gave a Kd (HLA-B*15:17) of at least 20 µM, a Kd (HLA-B*27:03; [13]) of at least 20 µM and a Kd (HLA-B*46:01 [5]; [13]) of at least 20 µM.

Work on QWLIEPCKL yielded a Kd (HLA-A*24:03) of 0.205 µM, a Kd (HLA-A*23:01) of 0.18 µM and a Kd (HLA-A*24:02; source organism: Orthohantavirus hantanense) of 0.155 µM.

Work on FQNVNRITY yielded a Kd (HLA-B*35:01; [14]) of 0.0394 µM and a Kd (HLA-B*15:01 [4]; [14]) of 0.0751 µM.

In the case of LPFQNVHPV, the Kd (HLA-C*05:01) is reported as at least 20 µM, the Kd (HLA-B*51:01; [15]) is reported as 1.49 µM and the Kd (HLA-B*35:01; [15]) is reported as 0.0004 µM. It also gave a Kd (HLA-B*07:02 [12]) of 0.161 µM.

Source: the Immune Epitope Database (IEDB)
